Assay results as given in patent publication US20140134179A1 (Novartis, published 2014).
Blank lines part the entries; values can stand above or below the binder they belong to.

Key:
[1] = target: T1, hTEM8(ED)-Fc fusion protein (human; mouse, UniProt Q9H6X2 33-321); test: ELISA on biotinylated human TEM8-Fc captured on neutravidin
T1 construct: also called TEM8-Fc; human TEM8-Fc
T1 sequence: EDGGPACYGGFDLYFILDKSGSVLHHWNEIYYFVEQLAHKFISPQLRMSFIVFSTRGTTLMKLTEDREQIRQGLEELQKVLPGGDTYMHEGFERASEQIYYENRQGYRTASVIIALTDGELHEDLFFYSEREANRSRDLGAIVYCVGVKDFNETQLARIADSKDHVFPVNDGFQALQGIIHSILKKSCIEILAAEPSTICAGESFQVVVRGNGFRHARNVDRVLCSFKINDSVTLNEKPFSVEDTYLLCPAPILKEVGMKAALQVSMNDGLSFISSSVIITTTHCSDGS

[2] = target: T2, flag-tagged human TEM8 on 293 cells (293/Flag-hTEM8) (human, UniProt Q9H6X2 33-564); test: immunofluorescence and flow cytometry on 293/Flag-hTEM8 cells
T2 construct: also called 293/Flag-huTEM8; 293/hFlag-TEM8

[3] = target: T3, mouse TEM8 on 293 cells (293/mTEM8) (mouse, UniProt Q9CZ52 31-562); test: flow cytometry on 293/mTEM8 cells (FIG. 8C)
T3 construct: whole, on cells

[4] = target: T2, flag-tagged human TEM8 on 293 cells …; test: flow cytometry titration on 293/Flag-hTEM8 cells, FITC anti-mouse secondary (FIG. 9B)

- binding result [1]: binds
- binding result [2]: binds
- binding result [3]: binds
B1: L1 Fab (Fab, V domains shown)
VH: QVQLVESGGGLVQPGGSLRLSCAASGFTFNSYAMSWVRQAPGKGLEWVSLISSGSSTYYADSVKGRFTISRDNSKNTLYLQMNSLRAEDTAVYYCARAGFKFDNWGQGTLVTVSS
VL: DIELTQPPSVSVAPGQTARISCSGDSIPNYSVSWYQQKPGQAPVLVIYADSNRPSGIPERFSGSNSGNTATLTISGTQAEDEADYYCQSYDNTSPDLVFGGGTKLTVLG

- EC50 [4]: 2.8 nM
B2: L5-mIgG2a (antibody, V domains shown)
VH: QVQLVESGGGLVQPGGSLRLSCAASGFTFNSYGLSWVRQAPGKGLEWVSNISSNGSYTYYADSVKGRFTISRDNSKNTLYLQMNSLRAEDTAVYYCARAGYGLFDVWGQGTLVTVSS
VL: DIELTQPPSVSVAPGQTARISCSGDKLREYYVHWYQQKPGQAPVLVIYGDNKRPSGIPERFSGSNSGNTATLTISGTQAEDEADYYCSSWAGSRSGTVFGGGTKLTVL
notes: also called L5 full IgG
